experiment: yeast display, Sf9 membrane polyspecificity reagent, FACS + sequencing; frameworks hold sequencing errors
How it was run: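 Galactose induction of a Saccharomyces cerevisiae BJ5465 synthetic nanobody display library ran 36–48 hours. The cells were then stained for 1 hour at 4 °C with 10% biotinylated, detergent-solubilized Sf9 membrane reagent, pulled down on streptavidin microbeads and FACS-sorted into low and high (top ~1%) gates on expression and reagent-binding fluorescence. Labels for polyreactivity follow the gate of origin.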

Row | Sequence | polyreactivity (PSR sort gate)
1 | QVQLVESGGGLVQAGGSLRLSCAASGSIFWPYTMGWYRQAPGKEWELVAAITSTDSTDYADSVKGRFTISRDNAKNTVYLQMNSLKPEDTAVYYCNADYQSRTGSVIYTAHPYDYWGQGTQVTVSS | low polyreactivity
2 | QVQLVESGGGLVQAGGSLRLSCAASGSIFWRNAIGWYRQAPRKERELVAAISRVGSTNYADSVKGRFTISRDNAKNTVYLQMTSLKPEDTAVYYCAKDSIWRVYEYDYWGQGTQVTVSS | low polyreactivity
3 | QVQLVESGGGLVQAGGSLRLSCAASGSIFWRNAMGWYRQAQGKEREFVATITWSGDSTYYADSVKGRFTISRDNAKNTVYLQMNSLKPEDTAVYYCATDWRNWGYDSWGQGTQVTVSS | low polyreactivity
4 | QVQLVESGGGLVQAGGSLRLSCAASGSIFWRYAMGWDRQAPGKERELVATITSRGGSTYYADSVKGRFTISRDNAKNTVYLQMNSLKPEDTAVYYCAATGLPGYYAYDYWGQGTQVTVSS | low polyreactivity
5 | QVQLVESGGGLVQAGGSLRLSCAASGSIFWRYAMGWYRQAPGKERELVAAISSSGSTYYADSVKGRFTISRDNAKNTVYLQMNSLKPEDTAVYYCAKRASALLRHSYDYWGQGTQVSVSS | low polyreactivity
6 | QVQLVESGGGLVQAGGSLRLSCAASGSIFWRYDMGWLDRRLGKKGSSLPLLLVLVTTRTTQTPVKGRFTISRDNAKNTVYLQMNSLKPEDTAVYYCAADLRASGLKYEYWGQGTQVTVSS | low polyreactivity
7 | QVQLVESGGGLVQAGGSLRLSCAASGSIFWRYTMGWYRQAPGKERELVAAISTRGGSTYYADSVKGRFTISRDNAKNTVYLQMNSLKPEDTAVYYCNAVEGSRLPYDYWGQGTQVTVSS | low polyreactivity
8 | QVQLVESGGGLVQAGGSLRLSCAASGSIFWSNAMGWYRQEPVKEREMVARISTSGGRTYYADSVKGRFTISRDNAKNTVYLQMNSLKPEDTAVYYCADDPYRWYYSTFYYWGQGTQVTVSS | high polyreactivity
9 | QVQLVESGGGLVQAGGSLRLSCAASGSIFWSYAMGWYRQAPGKEREFVAAISGGDGTTYYADSVKGRFTISRDNAKNTVYLQMNSLKPEDTAVYYCNAVGYWYGSLEYDYWGQGTQVTVSS | low polyreactivity
10 | QVQLVESGGGLVQAGGSLRLSCAASGSIFWSYAMGWYRQAPGKERELVAAITYSGTSTYYADSVKGRFTISRDNAKNTVYLQMNSLKPEDTAVYYCNADAYVYFDDGDYWGQGTQVTVSS | low polyreactivity
11 | QVQLVESGGGLVQAGGSLRLSCAASGSIFWTNAMGWYRQAPGKERELVAAIRVSTGSTYYADSVKGRFTISRDNAKNTVYLQMNSLKPEDTAVYYCAARTYGWGYDYWGQGTQVTVSS | low polyreactivity
12 | QVQLVESGGGLVQAGGSLRLSCAASGSIFWWYGMGWDRQAPGKERELVADITSGGGTYYADSVKGRFTISRDNAKNTVYLQLNSLKPEDTAVYYCAADVRAYRFDYYFDYWGQGTQVTVSS | low polyreactivity
13 | QVQLVESGGGLVQAGGSLRLSCAASGSIFWYNTMGWYRQAPGKERELVAAISYRGGRTYYADSVKGRFTISRDNAKNTVYLQMNSLKPEDTAVYYCNAPRYLGGGQDALGDYWGQGTQVTVSS | high polyreactivity
14 | QVQLVESGGGLVQAGGSLRLSCAASGSIFWYNTMGWYRQAPGKERELVAAITFSGGSTYYADSVKERFTISRDNAKNTVYLQMNSLKPEDTAVYYCAAVFYSAVGYYYWGQGTQVTVSS | low polyreactivity
15 | QVQLVESGGGLVQAGGSLRLSCAASGSIFYAYAMGWYRQAPGKERELVATISRGVNTNYADSVKGRFTISRDNAKNTVYLQMNSLKPEDTAVYYCNARLRYGHGYGYWGQGTQVTVSS | low polyreactivity
16 | QVQLVESGGGLVQAGGSLRLSCAASGSIFYDNAMGWSRQAPGKERELVASIRWSGDSTYYADSVKGRFTISRDNAKNTVYLQMNSLKPEDTAVYYCAADPVEPYFTAIAYDYWGQGTQVTVSS | low polyreactivity
17 | QVQLVESGGGLVQAGGSLRLSCAASGSIFYDYAMGCYRQAPGKERELVDRISSGGSTYYADSVKGRFTISRDNAKNTVYLQMNSLKPEDSAVYYCNAGVEFAASLYYSDNYDYWGQGTQVTVSS | low polyreactivity
18 | QVQLVESGGGLVQAGGSLRLSCAASGSIFYDYAMGWYRQAPGKERELVAAITASGGSTYYADSVKGRFTISRDNAKNTVYLQMNSLKPEDTAVYYCAAESESYEQVGEMDSWGQGTQVTVSS | low polyreactivity
19 | QVQLVESGGGLVQAGGSLRLSCAASGSIFYDYTMGWYRQAPGKERELVAAINSGGSTNYADSVKGRFTISRDNAKNTVYLQMNSLKPEDTAVYYCAAVRYNSRVSTTPSEMYYLGQGTQVTVSS | low polyreactivity
20 | QVQLVESGGGLVQAGGSLRLSCAASGSIFYENAMGWYRQAPGKERELVAAIRDSGGSTYYADSVKGRFTISRDNAKNTVYLQMNSLKPEDTAVYYCNAVPVYYDYDYWGQGTQVTVSS | low polyreactivity
21 | QVQLVESGGGLVQAGGSLRLSCAASGSIFYFNAMGWYRQAPGKERELVAAISSGGGTNYADSVKGRFTISRDNAKNTVYLQMNSLKPEDTAVYYCAAAVSLFYPTWYYFSYDYWGQGTQVTVSS | low polyreactivity

Row | Sequence | polyreactivity (PSR sort gate)
22 | QVQLVESGGGLVQAGGSLRLSCAASGSIFYFNAMGWYRQAPGKERELVAAISTSGGSTYADSVKGRFTISRDNAKNTVYLQMNSLKPEDTAVYYCAADYLTSRSRTFDYWGQGTQVTVSS | low polyreactivity
23 | QVQLVESGGGLVQAGGSLRLSCAASGSIFYFNAMGWYRQAPGKERELVATIRSGDGRTYYADSVKGRFTISRDNAKNTVYLQMNSLKPEDTAVYYCNASRVVYRQAYLYGYDYWGQGTQVTVSS | low polyreactivity
24 | QVQLVESGGGLVQAGGSLRLSCAASGSIFYFYAMGGYRQAPGKERELVAAIRSSDGITYYADSVKGRFTISRDNAKNTVYLQMNSLKPEDTAVYYCAALVRDFYNWDTLYYWGQGTQVTVSS | low polyreactivity
25 | QVQLVESGGGLVQAGGSLRLSCAASGSIFYFYAMGWYRQAPGKERELVAAISSRGTSTYYADSVKGRFTISRDNAKNTVYLQMNSLKPEDTAVYYCAAQIYVYYQRRPPYDYWGQGTQVTVSS | high polyreactivity
26 | QVQLVESGGGLVQAGGSLRLSCAASGSIFYGNAMGWYRQAPGKERELVAAISGSGGRTYYADSVKGRFTISRDNAKNTVYLQMISLKTEDTAVYYCAASAPGGQDDYWGQGTQVTVSS | high polyreactivity
27 | QVQLVESGGGLVQAGGSLRLSCAASGSIFYGNAMGWYRQAPGKERELVAAISQSGSRTYYADSVKGRFTISRDNAKNTVYLQMNSLKPEDTAVYYCAARARIYNYWGQGTQVTVSS | high polyreactivity
28 | QVQLVESGGGLVQAGGSLRLSCAASGSIFYGNAMGWYRQAPGKERELVAAISTRGGSTYYADSVKGRFTISRDYAKNTVYLQMNSLKPEDTAVYYCNADSRRRLFDYWGQGTQVTVSS | high polyreactivity
29 | QVQLVESGGGLVQAGGSLRLSCAASGSIFYGYAMGWYRQAPGKEREFVAGIDSSGGSTSYADSVKGRFTISRDNAKNTVYLQMNSLKPEDTAVYYCAKQIVSGRRVDRNDYWGQGTQVTVSS | low polyreactivity
30 | QVQLVESGGGLVQAGGSLRLSCAASGSIFYGYAMGWYRQAPGKERELVAAISLSGGRTYYADSVKGRFTLSRDNAKNPVYLQRNSLKPEDTAVYYCAAQTRSSDGPSWYYYWGQGTQVTVSS | high polyreactivity
31 | QVQLVESGGGLVQAGGSLRLSCAASGSIFYGYAMGWYRQAPGKERELVASITGSGGSTSYADSVKGRFTISRDNAKNTVYLQMNSLKPEDTAVYYCNTVLLQLYKLASGYDYWGQGTQVTVSS | high polyreactivity
32 | QVQLVESGGGLVQAGGSLRLSCAASGSIFYGYTMGWYRQAPGKERELVAGITRSGTSTYYADSVKGRFTISRDNAKNTVYLQMNSLNPQDTAVYYCARVGLSKRYGSWGQGTEVTVSS | high polyreactivity
33 | QVQLVESGGGLVQAGGSLRLSCAASGSIFYHYAMGWYIQAPGKERELVAAISWRGASTYYADSVKGRFTISRDNAKNTVYLQMNSLKPEDTAVYYCARLSSSHPLYRDDYWGQGTQVTVSS | high polyreactivity
34 | QVQLVESGGGLVQAGGSLRLSCAASGSIFYHYAMGWYRQAPGKDRELVADITQSGGTTDYADSVKGRFTISRYNAKNTVYLQMNSLKPEDTAVYYCAADGDTTSPTYYIFWSGEFDYWGQGNQVTVSS | low polyreactivity
35 | QVQLVESGGGLVQAGGSLRLSCAASGSIFYHYAMGWYRQAPGKERELVAAISRSGGRTYYADSVKGRFTISRDNAKNTVYLQMNSLKPEDTAVYYCAAGTSWPWYQRDYWGQGTQVTVSS | low polyreactivity
36 | QVQLVESGGGLVQAGGSLRLSCAASGSIFYINAMGWYRQAPGKEREFVATITWSGDSTYYADSVKGRFTISRDNAKNTVYLQMNSLKPDDTAVYYCNARKQYPSYVDWEYDYWGQGTQVTVSS | low polyreactivity
37 | QVQLVESGGGLVQAGGSLRLSCAASGSIFYINAMGWYRQAPGKERELGAAITSDGSTYYADSVKGRFTISRDKAKHTVYLQMNSLKPEDTAVYYCAADLTSDQFLYYWYWFYSWGQGTQVTVSS | low polyreactivity
38 | QVQLVESGGGLVQAGGSLRLSCAASGSIFYINAMGWYRQAPGKERELVAAINRGGSTNYADSVKGRFTISRDNAKNTVYLQMYSLKPEDTAVYYCAAYIYKTYRYYYWGQGTQVTVSS | high polyreactivity
39 | QVQLVESGGGLVQAGGSLRLSCAASGSIFYINPMGWYRQAPGKERELVAAINFSDGRTYYADSVKGRFTISRDNAKNTVYLQMNSLKPEDTAVYYCAAAVYPSEYDYWGQGTQVTVSS | low polyreactivity
40 | QVQLVESGGGLVQAGGSLRLSCAASGSIFYINTMGWYRQAPGKEREMVATIRTSGGSTYADSVKGRFTISRDNAKNTVYLQMNSLKPEDTAVYYCAVRRYRSSSYGYYSWGQGTQVTVSS | high polyreactivity
41 | QVQLVESGGGLVQAGGSLRLSCAASGSIFYKNAMGWYRQAPGKVRELVAAITGSGGRTYYADSVKGRFTISRDNAKNTVYLQMNSLKPEDTAVYYCNTDPSPRYRYDYWGQGTQVTVSS | high polyreactivity

— the nanobody polyreactivity screen of Harvey et al. (2022)
